Earlier results, collected in article PMC8569200.
pKd: −log10 of the molar value.

Target: CD137 (Homo sapiens) (UniProt Q07011)
Experiment: SPR

Chain of CD137L (P41273 whole entry): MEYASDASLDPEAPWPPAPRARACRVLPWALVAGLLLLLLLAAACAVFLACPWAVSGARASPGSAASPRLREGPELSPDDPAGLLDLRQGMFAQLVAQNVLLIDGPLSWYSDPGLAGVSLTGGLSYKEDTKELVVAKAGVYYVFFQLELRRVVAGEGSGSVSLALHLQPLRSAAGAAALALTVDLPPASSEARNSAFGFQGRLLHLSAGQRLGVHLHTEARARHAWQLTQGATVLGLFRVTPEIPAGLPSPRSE
Chain of CD137 (Homo sapiens) (Q07011 24-255): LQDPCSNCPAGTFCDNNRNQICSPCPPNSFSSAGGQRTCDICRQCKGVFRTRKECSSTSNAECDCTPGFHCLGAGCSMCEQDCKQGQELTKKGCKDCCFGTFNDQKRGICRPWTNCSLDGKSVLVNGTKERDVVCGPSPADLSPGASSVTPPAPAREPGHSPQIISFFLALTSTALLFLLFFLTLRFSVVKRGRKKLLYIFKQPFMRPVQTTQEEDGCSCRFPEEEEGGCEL

pKd: 6.17
Substance: CD137L (from UniProt P41273)
